The values that follow come from EP4342988A1 (Eberhard Karls Universität Tübingen, Medizinische Fakultät, dated 2024).

The target in assay [1] is 149 proteins which strongly interact with THAP1. Put plainly: TAP-MS, anti-Flag pull-down of tagged THAP1 against empty vector, LC-MS/MS peak area ratios.
Assay [2] concerns the target T1, CTCF (CCCTC-binding factor / Transcriptional repressor CTCF) (UniProt P49711 1-727).
T1 sequence (looked up): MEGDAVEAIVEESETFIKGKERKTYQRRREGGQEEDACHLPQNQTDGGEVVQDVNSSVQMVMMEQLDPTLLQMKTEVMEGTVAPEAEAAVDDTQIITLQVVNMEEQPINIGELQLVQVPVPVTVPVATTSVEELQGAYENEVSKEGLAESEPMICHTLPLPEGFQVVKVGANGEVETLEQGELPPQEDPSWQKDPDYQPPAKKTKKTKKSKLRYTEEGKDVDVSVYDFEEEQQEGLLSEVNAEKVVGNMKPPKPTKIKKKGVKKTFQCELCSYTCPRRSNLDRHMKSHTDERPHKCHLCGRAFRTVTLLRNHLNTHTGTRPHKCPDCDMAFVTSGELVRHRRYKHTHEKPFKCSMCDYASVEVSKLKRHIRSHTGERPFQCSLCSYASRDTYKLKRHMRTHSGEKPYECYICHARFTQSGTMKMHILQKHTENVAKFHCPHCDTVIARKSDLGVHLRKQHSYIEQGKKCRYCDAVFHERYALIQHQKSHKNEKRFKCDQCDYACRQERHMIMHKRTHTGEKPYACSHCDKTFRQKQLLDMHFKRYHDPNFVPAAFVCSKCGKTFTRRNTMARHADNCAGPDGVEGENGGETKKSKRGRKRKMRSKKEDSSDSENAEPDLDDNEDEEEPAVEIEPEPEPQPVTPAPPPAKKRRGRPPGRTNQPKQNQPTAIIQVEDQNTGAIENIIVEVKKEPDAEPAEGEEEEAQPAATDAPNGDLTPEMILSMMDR
Put plainly: anti-Flag pull-down of tagged THAP1 from HEK-293 nuclear extract (TAP), Western blot. Background: Immunoblotting shows a protein as a band on a membrane.

B1: Strep/FLAG tagged THAP1 protein (other, human, UniProt Q9NVV9 1-213, looked up)
chain: MVQSCSAYGCKNRYDKDKPVSFHKFPLTRPSLCKEWEAAVRRKNFKPTKYSSICSEHFTPDCFKRECNNKLLKENAVPTIFLCTEPHDKKEDLLEPQEQLPPPPLPPPVSQVDAAIGLLMPPLQTPVNLSVFCDHNYTVEDTMHQRKRIHQLEQQVEKLRKKLKTAQQRCRRQERQLEKLKEVVHFQKEKDDVSERGYVILPNDYFEIVEVPA
notes: Bait of the TAP-MS pull-down from nuclear extract of HEK-293 cells on anti-Flag M2 agarose, with benzonase added; also called wild-type THAP1; hTHAP1; not shown: Strep/FLAG tag
Regarding B1, the log2 (TAP-MS ratio) in assay [1] turned out to be 15 log2. In addition, the binding result in assay [2] was “binds”.
